Experimental data from patent US10202593B2, “Evolved sortases and uses thereof” (President and Fellows of Harvard College, priority 2013, dated 2019).
Where “and” joins values, the source holds several entries; their conditions need not be identical. Equal values may be shown once. Read-outs that look alike come from different tables or passages of the source.

What was measured:
[1] = test system: LPETG (Abz-LPETGK(Dnp)-CONH2); test: In vitro sortase kinetics HPLC assay, LPETG substrate; format: biochemical
In short: (§1)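 Abz-LXEXGK(Dnp) peptides in 300 mM Tris pH 7.5, 150 mM NaCl, 5 mM CaCl2, 5% DMSO, GGG; 22.5° C., acid-quenched, converted fraction by reverse-phase HPLC peak areas. kcat and Km from eight substrate concentrations fit to Michaelis-Menten; KH at 1 mM substrate over eight GGG levels.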

[2] = Differential scanning fluorimetry for thermal melting curves; format: physicochemical
Experimental: FIGS. 25A-C show thermal melting curves for eSrtA variants. Each protein was freshly expressed and purified, then diluted to 40 μM in 100 mM Tris pH 7.5, 500 mM NaCl. Differential scanning fluorimetry was performed using the Life Technologies Protein Thermal Shift™ Dye kit according to manufacturers' instructions. Thermal scanning was performed on Biorad CFX96-Real Time PCR (25° C. to 99° C., 0.2° C./2s increments). To calculate Tm, fluorescence intensity was fit to the Boltzmann equation using Microsoft Excel using the Solver add-in. Melting curves were plotted with best-fit fluorescence intensities that were normalized to maximum fluorescence intensity. Tm values are shown with their standard deviations as determined from three technical replicates.
To determine thermal stability of eSrtA, eSrtA(2A-9), eSrtA(4S-9), and variants thereof, each protein was freshly expressed and purified, then diluted to 40 μM in 100 mM Tris pH 7.5, 500 mM NaCl. Differential scanning fluorimetry was performed using the Life Technologies Protein Thermal Shift™ Dye kit according to manufacturers' instructions. […] To calculate Tm, fluorescence intensity was fit to the Boltzmann equation using Microsoft Excel using the Solver add-in. Melting curves were plotted with best-fit fluorescence intensities that were normalized to maximum fluorescence intensity.

[3] = test system: LAETG (Abz-LAETGK(Dnp)-CONH2); test: In vitro sortase kinetics HPLC assay, LAETG substrate; format: biochemical; conditions: for Km: read-out: Km
In short: as §1

[4] = test system: LPESG (Abz-LPESGK(Dnp)-CONH2); test: In vitro sortase kinetics HPLC assay, LPESG substrate; format: biochemical
In short: as §1

[5] = GGG varied, substrate wt (LPETG)
[6] = GGG varied, substrate 4S (LPESG)

B1: eSrtA(4S-9): P94R, N98D, S102C, A104V, A118T, F122A, K134R, F144L, D160N, D165A, I182V, E189F, K190E, K196T (protein)
chain: QAKPQIPKDKSKVAGYIEIPDADIKEPVYPGPATREQLDRGVCFVEENESLDDQNISITGHTAIDRPNYQFTNLRAAKKGSMVYLKVGNETRKYKMTSIRNVKPTAVEVLDEQKGKDKQLTLVTCDDYNFETGVWETRKIFVATEVK
KH ([1]; 1 mM LPETG): 295 ± 19 µM | KN ([1]; 1 mM LPETG, eight GGG concentrations): 295 ± 19 µM | Km ([1]; 1 mM LPETG, read-out: Km,GGG): 98000 ± 13000 µM | Avg kcat (Hz) ([1]; Example 5 variants, substrate wt (LPETG)): 0.0468 Hz | Km ([1]; Example 5 variants, substrate wt (LPETG), read-out: Avg KM): 66.1 µM | Avg kHydro (Hz) [1, 5]: 0.000173 Hz | Avg kcat (Hz) [1, 5]: 0.05704 Hz | Km ([1]; KM for GGG, substrate wt (LPETG), read-out: Avg KM): 97600 µM | KH,LPETG ([1]; LPETG substrate): 295 ± 18 µM | Kcat (Hz) ([1]; Sub LPETG, 100 mM GGG): 0.047 ± 0.006 Hz | Km ([1]; Sub LPETG, 100 mM GGG, read-out: Km): 64.7 ± 4.2 µM | Rel. Activity ([1]; Sub LPETG, kcat/Km of the enzyme's preferred substrate relative to kcat/Km on this substrate): 25 | Kcat (Hz) ([1]; Table 2, Sub LPETG): 0.047 ± 0.006 Hz | Km ([1]; Table 2, Sub LPETG, read-out: Km): 64.7 ± 4.2 µM | activity on LPETG ([1]; round 9 clones): minimally active on LPETG | Avg KH ([1]; substrate wt (LPETG)): 294.8601 µM | ΔTm compared to eSrtA [2]: ~4.4 °C | activity on LAETG [3]: negligible activity | Kcat (Hz) ([3]; Sub LAETG, 100 mM GGG): 0.0078 ± 0.0006 Hz | Km ([3]; Sub LAETG, 100 mM GGG): 387 ± 49 µM | Rel. Activity ([3]; Sub LAETG, kcat/Km of the enzyme's preferred substrate relative to kcat/Km on this substrate): 898 | Kcat (Hz) ([3]; Table 2, Sub LAETG): 0.0078 ± 0.0006 Hz | Km ([3]; Table 2, Sub LAETG): 387 ± 49 µM | KH ([4]; 1 mM LPESG): 174 ± 32 µM | KN ([4]; 1 mM LPESG, eight GGG concentrations): 174 ± 32 µM | Km ([4]; 1 mM LPESG, read-out: Km,GGG): 69000 ± 12000 µM | Avg kcat (Hz) ([4]; Example 5 variants, substrate 4S (LPESG)): 2.146 Hz | Km ([4]; Example 5 variants, substrate 4S (LPESG), read-out: Avg KM): 123 µM | Avg kHydro (Hz) [4, 6]: 0.008016 Hz | Avg kcat (Hz) [4, 6]: 3.178 Hz | Km ([4]; KM for GGG, substrate 4S (LPESG), read-out: Avg KM): 69500 µM | KH (KH,LPESG) ([4]; LPESG substrate): 174 ± 32 µM | Kcat (Hz) ([4]; Sub LPESG, 100 mM GGG): 2.05 ± 0.15 Hz | Km ([4]; Sub LPESG, 100 mM GGG, read-out: Km): 113 ± 12 µM | Rel. Activity ([4]; Sub LPESG, kcat/Km of the enzyme's preferred substrate relative to kcat/Km on this substrate): 1 | Kcat (Hz) ([4]; Table 2, Sub LPESG): 2.05 ± 0.15 Hz | Km ([4]; Table 2, Sub LPESG, read-out: Km): 113 ± 12 µM | change in specificity for LPESG versus LPETG relative to eSrtA ([4]; ratio of (kcat/KM)target to (kcat/KM)LPETG, relative to eSrtA): 120 fold and 125 fold | preference for LPESG over LPETG ([4]; ratio of kcat/KM): 25 fold | Specificity ([4]; ratio of kcat/KM, 4S (LPESG) over wt (LPETG)): 24.953 | Avg KH ([4]; substrate 4S (LPESG)): 173.5925 µM
